Measured values from publication PMC3569735.

How the values were obtained:
V1–V2 bnAb PG9 (human) = experiment: SPR
mAb CH59 (human) = experiment: SPR

Substance: AE.A244 gp120Δ11 (natural protein)
- Kd (V1–V2 bnAb PG9 (human)): 42.1 nM
- Kd (mAb CH59 (human)): 2.2 nM
